Experimental data published in patent US20140286957A1 (Teva, published 2014).
Residue numbers refer to the chain shown, from its start. Like-named read-outs stand apart in the source and are kept apart here.

B1: 401.11.38 (antibody, name in Kabat numbering, V domains shown)
VH: QVQLVGSGGGLVKPGRSLRLSCAASGFTFDDYAMHWVRQAPGKGLEWVATIIWNSAIIGYADSVKGRFIVSRDNAKNSLYLQMNSLRAEDMALYYCAKSMCSSSGCPDGYFDSWGQGTLVTVSS
VL: DIQMTQSPSSVSASVGDRVTITCRASQHISSWLAWYQQKPGKAPNLLIYAASSLQSGVSSRFSGSGSGTDFTLTISSLQPEDFATYYCQQANRFPLTFGGGTKLEIKR
B2: 401.11.50 (antibody, name in Kabat numbering, V domains shown)
VH: B1 VH with S99D, M100G
VL: B1 VL
B3: 401.11.108 (antibody, name in Kabat numbering, V domains shown)
VH: B1 VH with S99D, P107R
VL: B1 VL
B4: 401.11.126 (antibody, name in Kabat numbering, V domains shown)
VH: B1 VH with S99D, Y110S
VL: B1 VL
B5: 401.11.133 (antibody, name in Kabat numbering, V domains shown)
VH: B1 VH with S99D, S113W
VL: B1 VL
B6: 401.11.49 (antibody, name in Kabat numbering, V domains shown)
VH: B1 VH with S99D, M100S
VL: B1 VL
B7: 401.11.44 (antibody, name in Kabat numbering, V domains shown)
VH: B1 VH with S99D, M100K
VL: B1 VL
B8: 401.11.138 (antibody, name in Kabat numbering, V domains shown)
VH: B1 VH with S99D, S113Y
VL: B1 VL
B9: 401.11.101 (antibody, name in Kabat numbering, V domains shown)
VH: B1 VH with S99D, P107S
VL: B1 VL
B10: 401.11.65 (antibody, name in Kabat numbering, V domains shown)
VH: B1 VH with S99D, S102K
VL: B1 VL
B11: 401.11.127 (antibody, name in Kabat numbering, V domains shown)
VH: B1 VH with S99D, Y110Q
VL: B1 VL
B12: 401.11.45 (antibody, name in Kabat numbering, V domains shown)
VH: B1 VH with S99D, M100R
VL: B1 VL
B13: 401.11.46 (antibody, name in Kabat numbering, V domains shown)
VH: B1 VH with S99D, M100F
VL: B1 VL
B14: 401.11.67 (antibody, name in Kabat numbering, V domains shown)
VH: B1 VH with S99D, S102Y
VL: B1 VL
B15: 401.11.115 (antibody, name in Kabat numbering, V domains shown)
VH: B1 VH with S99D, D108Y
VL: B1 VL
B16: 401.11.132 (antibody, name in Kabat numbering, V domains shown)
VH: B1 VH with S99D, S113T
VL: B1 VL
B17: 401.11.107 (antibody, name in Kabat numbering, V domains shown)
VH: B1 VH with S99D, P107Y
VL: B1 VL
B18: 401.11.66 (antibody, name in Kabat numbering, V domains shown)
VH: B1 VH with S99D, S102R
VL: B1 VL
B19: 401.11.63 (antibody, name in Kabat numbering, V domains shown)
VH: B1 VH with S99D, S102L
VL: B1 VL
B20: 401.11.137 (antibody, name in Kabat numbering, V domains shown)
VH: B1 VH with S99D, S113R
VL: B1 VL
B21: 401.11.113 (antibody, name in Kabat numbering, V domains shown)
VH: B1 VH with S99D, D108G
VL: B1 VL
B22: 401.11.61 (antibody, name in Kabat numbering, V domains shown)
VH: B1 VH with S99D, S102T
VL: B1 VL
B23: 401.11.68 (antibody, name in Kabat numbering, V domains shown)
VH: B1 VH with S99D, S102G
VL: B1 VL
B24: 401.11.136 (antibody, name in Kabat numbering, V domains shown)
VH: B1 VH with S99D, S113K
VL: B1 VL
B25: 401.11.110 (antibody, name in Kabat numbering, V domains shown)
VH: B1 VH with S99D, D108K
VL: B1 VL
B26: 401.11.131 (antibody, name in Kabat numbering, V domains shown)
VH: B1 VH with S99D, S113D
VL: B1 VL
B27: 401.11.103 (antibody, name in Kabat numbering, V domains shown)
VH: B1 VH with S99D, P107G
VL: B1 VL
B28: 401.11.109 (antibody, name in Kabat numbering, V domains shown)
VH: B1 VH with S99D, P107W
VL: B1 VL
B29: 401.11.123 (antibody, name in Kabat numbering, V domains shown)
VH: B1 VH with S99D, G109R
VL: B1 VL
B30: 401.11.119 (antibody, name in Kabat numbering, V domains shown)
VH: B1 VH with S99D, G109A
VL: B1 VL
B31: 401.11.89 (antibody, name in Kabat numbering, V domains shown)
VH: B1 VH with S99D, G105D
VL: B1 VL
B32: 401.11.134 (antibody, name in Kabat numbering, V domains shown)
VH: B1 VH with S99D, S113L
VL: B1 VL
B33: 401.11.139 (antibody, name in Kabat numbering, V domains shown)
VH: B1 VH with S99D, S113G
VL: B1 VL
B34: 401.11.124 (antibody, name in Kabat numbering, V domains shown)
VH: B1 VH with S99D, Y110W
VL: B1 VL
B35: 401.11.135 (antibody, name in Kabat numbering, V domains shown)
VH: B1 VH with S99D, S113V
VL: B1 VL
B36: 401.11.112 (antibody, name in Kabat numbering, V domains shown)
VH: B1 VH with S99D, D108S
VL: B1 VL
B37: 401.11.116 (antibody, name in Kabat numbering, V domains shown)
VH: B1 VH with S99D, D108F
VL: B1 VL
B38: 401.11.122 (antibody, name in Kabat numbering, V domains shown)
VH: B1 VH with S99D, G109K
VL: B1 VL
B39: 401.11.64 (antibody, name in Kabat numbering, V domains shown)
VH: B1 VH with S99D, S102V
VL: B1 VL
B40: 401.11.87 (antibody, name in Kabat numbering, V domains shown)
VH: B1 VH with S99D, G105S
VL: B1 VL
B41: 401.11.88 (antibody, name in Kabat numbering, V domains shown)
VH: B1 VH with S99D, G105A
VL: B1 VL
B42: 401.11.104 (antibody, name in Kabat numbering, V domains shown)
VH: B1 VH with S99D, P107L
VL: B1 VL
B43: 401.11.102 (antibody, name in Kabat numbering, V domains shown)
VH: B1 VH with S99D, P107T
VL: B1 VL
B44: 401.11.111 (antibody, name in Kabat numbering, V domains shown)
VH: B1 VH with S99D, D108R
VL: B1 VL
B45: 401.11.118 (antibody, name in Kabat numbering, V domains shown)
VH: B1 VH with S99D, G109S
VL: B1 VL
B46: 401.11.125 (antibody, name in Kabat numbering, V domains shown)
VH: B1 VH with S99D, Y110F
VL: B1 VL
B47: 401.11.117 (antibody, name in Kabat numbering, V domains shown)
VH: B1 VH with S99D, D108Q
VL: B1 VL
B48: 401.11.90 (antibody, name in Kabat numbering, V domains shown)
VH: B1 VH with S99D, G105K
VL: B1 VL

Legend:
Human CD1d/β2M [1] = biological target: T1, Human CD1d/β2M (human, UniProt P15813 20-301; P61769 21-119); test: SPR, transfection supernatant
T1 construct: also called hCD1d; recombinant human CD1d

Human CD1d/β2M [2] = biological target: T1, Human CD1d/β2M; test: SPR, transfection supernatant; remark: listed apart in the source

| Binder | Kd (Human CD1d/β2M [2]) [nM] | also measured |
| --- | --- | --- |
| B1 | – | binding result (Human CD1d/β2M [1]): no binding |
| B2 | – | Kd (Human CD1d/β2M [1]): 0.187 nM |
| B3 | < 0.01 | – |
| B4 | 0.0313 | – |
| B5 | 0.167 | – |
| B6 | – | Kd (Human CD1d/β2M [1]): 0.401 nM |
| B7 | – | Kd (Human CD1d/β2M [1]): 0.431 nM |
| B8 | 0.171 | – |
| B9 | < 0.01 | – |
| B10 | – | Kd (Human CD1d/β2M [1]): 1.67 nM |
| B11 | 2.7 | – |
| B12 | – | Kd (Human CD1d/β2M [1]): 0.249 nM |
| B13 | – | Kd (Human CD1d/β2M [1]): 0.303 nM |
| B14 | – | Kd (Human CD1d/β2M [1]): 0.0485 nM |
| B15 | 0.667 | – |
| B16 | 0.569 | – |
| B17 | 0.996 | – |
| B18 | – | Kd (Human CD1d/β2M [1]): 0.156 nM |
| B19 | – | Kd (Human CD1d/β2M [1]): 0.189 nM |
| B20 | 0.938 | – |
| B21 | 0.679 | – |
| B22 | – | Kd (Human CD1d/β2M [1]): 0.242 nM |
| B23 | – | Kd (Human CD1d/β2M [1]): 1.17 nM |
| B24 | < 0.01 | – |

| Binder | Kd (Human CD1d/β2M [2]) [nM] | also measured |
| --- | --- | --- |
| B25 | 0.247 | – |
| B26 | 0.2 | – |
| B27 | < 0.01 | – |
| B28 | – | binding result (Human CD1d/β2M [2]): no binding |
| B29 | 0.239 | – |
| B30 | 0.877 | – |
| B31 | 5.3 | – |
| B32 | 0.532 | – |
| B33 | 0.594 | – |
| B34 | 1.38 | – |
| B35 | 0.421 | – |
| B36 | 2.43 | – |
| B37 | 37.7 | – |
| B38 | 0.13 | – |
| B39 | – | Kd (Human CD1d/β2M [1]): 0.23 nM |
| B40 | 7.13 | – |
| B41 | 1.89 | – |
| B42 | 0.487 | – |
| B43 | 0.457 | – |
| B44 | < 0.01 | – |
| B45 | < 0.01 | – |
| B46 | 0.535 | – |
| B47 | 1.33 | – |
| B48 | < 0.01 | – |
